The nanobody polyreactivity screen of Harvey et al. (2022)

Test: yeast display, Sf9 membrane polyspecificity reagent, FACS + sequencing; frameworks hold sequencing errors
In short: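 Galactose induction of a Saccharomyces cerevisiae BJ5465 synthetic nanobody display library ran 36–48 hours. The cells were then stained for 1 hour at 4 °C with 10% biotinylated, detergent-solubilized Sf9 membrane reagent, pulled down on streptavidin microbeads and FACS-sorted into low and high (top ~1%) gates on expression and reagent-binding fluorescence. Labels for polyreactivity follow the gate of origin.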

QVQLVESGGGLVQAGGSLRLSCAASGFIFTDNAMGWYRQAPGKDREFVAAITYSGGSTYYADSVKGRFTISRDNAKNTVYFQMNSLKPVDTAVYYCNKDVFPAPGGVTAYEYEYWGQGTQVTVSS
polyreactivity (PSR sort gate): low polyreactivity

QVQLEESGGGLVQAGGSLRLSCAASGSTFVPYAMGWYRQAPGKERELVASISWRGGSTSYADSVKGRFTISRDNAKNTVYLQMNSLKPEDTAVYYCAADLGLDYDDAQTRVVVTSEDYWGQGTQVTVSS
polyreactivity (PSR sort gate): high polyreactivity

QVQLVESGGGLVQAGGSLRLSCAASGSTYYNAMGWYIQAPGKERELVAAIRFRSGSTYYADSVKGRFTISRDNAKNTVYLQMNSMKPVDTAVYYCAADNKRSWRYAYNYWGQGTQVTVSS
polyreactivity (PSR sort gate): high polyreactivity

QVQLVESGGGLVQAGGSLRLSCAHSASTLQIYAMGWDRQAPGKESELVASISSTTSTNYADSVMGRFTISRDNAKNTVYLQMNSMKPEDTAVYYCARERFGGTDSQVVPWFRFDYDYWGQRTQVTVSS
polyreactivity (PSR sort gate): low polyreactivity

QVQLVETAGGIVQAGGSLRLSCAASGRTNKYYAMGWYRQAPGKEREWVAVISWSGGSTYYADSVKGRFTISRDNAKNTVYLQMNSLKPEETAVYYCAARKRAQQGTRDHDYWGQGTQVTVSS
polyreactivity (PSR sort gate): high polyreactivity

QVQLVESGGGLVQAGGSLRLSCAASASILVRYAMVCYRQAPGKKREMVSAITATSGGTYYADSVKGRFTFSLDNAKNTVYLQMYSLKPEDTAVYYCNADGGSGAYLDLTITDYDYWGQGTQVTVSS
polyreactivity (PSR sort gate): low polyreactivity

QVQLVESGGGLVQAGGSLRLSCAASGHIFGRYAMGWYRQAPGKERELVAAITSGGRTNYADSVKGRFTISRDNAKNTVYLQMNSLKPEDTAVYYCAAYSWYFGSRYDYWGQGTQVTVSS
polyreactivity (PSR sort gate): low polyreactivity

QVQLVESGGGLVQAGGSLRLSCAASGSTLPAYTMAWYRQAPGKERELVAAISYRGGSTYYADSVKGRFTISRDNAKNTVYLQMNSLKPEDTAVYYCAAVYSVAYASTHYRIYDYWGQGTQVTVSS
polyreactivity (PSR sort gate): high polyreactivity

QVQLVESGGGLVQAGGSLRLSCAASGYIFDRYAMGWYRPAPGKERELVAAISVGGGTTYYADSVKGRFTISRDNAKNTVYLQMNSLKPEDTAVYYCAARSDSYAPRRGYWGQGTQVTVSS
polyreactivity (PSR sort gate): high polyreactivity

QVQLVESGGGLVQAGGSLRLSCAASGYIFSYNAMGWYRQAPGKERELVAAISRTGGSTNYADSVKGRFTISRDNAKNTVYLQMNSLKPEDTAVYYCAKRYRYPSWGEYGYWGQGTQVTVSS
polyreactivity (PSR sort gate): high polyreactivity

QVQRVESGGGLVQAGGSLRLSCAASGLTSKFYAMGWYRQAPRKERELVAAISGSGGSTYYADSVKGRFTISRDKAKNTVYLQMNSLKPEDTAVYYFAARYFGLRYYYWGQGTQVTVSS
polyreactivity (PSR sort gate): high polyreactivity

QVQLVESGGGLVQAGGSLRLSCAASGRTFVVYAMGWYRQAPGKERELVAVISFTGDSTFYADSVKGRFTISRDNAKNTVYLQMNSLKPEDTAVYYCAADFRRVFSKYSYYLYFDFDYWGQGSQVTVSS
polyreactivity (PSR sort gate): low polyreactivity

QVQLVESGGGLVQAGGSLRLSCAASGSIFRYYVMGWYRQAPGKEREFVAAISYRGGSTYYADSVKGRFTISRDNAKNTVYLEMNSLKPEDTAVYFCYAVHYRSFWTPGSNDYWGQGTQVTVSS
polyreactivity (PSR sort gate): high polyreactivity

QVQLVESGGGLVQAAGSLRLSCAASVITFVKNAMGWYRQAPGKERELVARIRIGGSTSYADSVKGRFTISRDYAKNTFYLQLNSLKPEDTAVYYCARYAGRLSYRYEYWGQGTQVTVSS
polyreactivity (PSR sort gate): high polyreactivity

QVQLVESGGGLVQAGGSLRLSCAASGSTFPEYAMGWYRQAPGKERELVADISSGGDTSYADSVKGRFTISRDNAKNTVYLQMNSLNPEDTAVYYCAAGTAGTTGSPKFSGYGYDYWGQGTQVTVSS
polyreactivity (PSR sort gate): low polyreactivity

QVQLVESGGGLVQAGGSLRLSCAASGSIFIGYARGWYRQAPGKERELVAGISWSGGSTYYADSVKGRFSISRDNAKNTVYLQMNSLKPEDTAVYYCNADITLYYFWAWTYGYYYWGQGTQVTVSS
polyreactivity (PSR sort gate): high polyreactivity

QVQLVESGGALVQAGGSLRLSSAASGLTFYYYAMGRYRQAPGKERELVAAITGSGGRTYYADSVKGRFTISRDNAKNNVYLQMNSLKPEDTAVYYCAASWPNYLYEYWGQGTQVTVSS
polyreactivity (PSR sort gate): high polyreactivity

QVQLVESGGGLVQAGGSLRLSCAASGSTLVYNDMGWYRQAPGKEREFVAAIRSNDGSTYYADSVKGRFTISRDNAKNTVYLQMNSLKAEDTAVYYCNKDVWDGYDWPEFDYWGQGTQVTVSS
polyreactivity (PSR sort gate): low polyreactivity

QVQLVESGGGLVQAGGSLRLSFAASGSTFRRYDMGWYRQAPGKERELVADISDRGSRTYYADSVKGRFTISRDNAKKTVYFQMNSLEPEYTAVYYCAAEAVGNTSPGDYWGQGTQVTVSS
polyreactivity (PSR sort gate): high polyreactivity

QVQLVESGGGLLQAGGSLRLSSAASVRIFPSYAMGWYRQARGKEREFVAAITRGGASTYYADSVKGRFTISRDNAKNTVYFEMNSLKPEVTAVYYCAKDAYRYGGFSWTTGMDYWGQGTQVTVSA
polyreactivity (PSR sort gate): high polyreactivity

QVQLVESGGGLVQAGGSLRLSCAASGRTFGYNAMGWYRQAPGKERELVAAINDGGSTNYADSVKGRFTISRDNAKNTVYLQMNSLKPEDTAVYYCATDFSNGRQSTFPYEYYYWGQGTQVTVSS
polyreactivity (PSR sort gate): high polyreactivity

QVQLVESGGGLVQAGGSLRLSCAASGSTFRQNAMGWYRQAPGKERELVAAITYRVASTYYADSVKGRFTISRDNAKNTVYLQMNSLKPEDSAVYYCAAYKRRSNGRYWTYDYWGQGSQVTVSS
polyreactivity (PSR sort gate): high polyreactivity

QVQLVESGGGLVQAGGSLRLSCAASGRIFSHYAMGWYRQAPGKERELVASITRGGTRTYADSVKGRFTISRDNAKNTVYLQMNSLKPEDSAVYYCAADGYAYYYEWSQGDLSYDHWGQVTQVTVSS
polyreactivity (PSR sort gate): low polyreactivity

QVQLVESGGGLVQAGGSLRLSCAASGSIFNYYAMGWYRQAPGKVRELVATISSGGNTKFADSVKGRFTISRDNAKNTVYLQMKSLKPEDTAVYFCGARWQHSGYRDRYCYDYWGQGTQVTVSS
polyreactivity (PSR sort gate): low polyreactivity

QVQLVESGGGLVQAGGSLRLSCAASGFTFYIYGMGWYRPAPGKERELVAAITWSGGRTYYADSVKGRFTISRDNAKNTVYLHMNSLKPEDTAVYYCAASYPGLSYHKYEYWGHGTQVTVSS
polyreactivity (PSR sort gate): high polyreactivity

QVQLVESGGGLVQAGGSLRLSCAASGSIFDSYAMGWYRQAPGKDRELVAAISGNSDSTYYADSVKGRFTISRDNATNTVYSQMNSLKAEDTAVYNCNARGRLPYLEFYYWGQGTQVTVSS
polyreactivity (PSR sort gate): low polyreactivity

QVQLVESGGGLVQAGGSHRLSCAASGRIFDKYAMGWYRQAPGKERELVATITSSGGSTYYADSVKGRFTISRDNAKNTVYLQMNSLKPEDTAVYYCAALDRTGWGYDYWGQGTQVTVSS
polyreactivity (PSR sort gate): low polyreactivity

QVQLVESGGGLVQAGGSLRLSCAASGSIFASNAMGWYRQAPGKERELVAAISTSGGSTYYADSVKGRFTISRDNAKNTVYLQMNSLKPEDTAVYYCAKLLARGFRIWQDYDYWGQGTQVTVSS
polyreactivity (PSR sort gate): low polyreactivity

QGQLVESGGGLVQAGGRLRLSCAASGSIFRAYAMGWYRQAPGKERELVADISRSGGSTYYADSVKGRFTISRDNAKNTVYLQMNSLKPEDTAVYYCYAPVGWSVEARVSRGYEDQYDYWGQGSQVTVSS
polyreactivity (PSR sort gate): low polyreactivity

QVQLVESGGGLVHAGGSLRLSCAPSGSTFDDYTMGWYRPAPGKERELVAAISSAGSTNYADSVKGRFTISRDNAKNTVYLQMNSLKPEDTAVYYCAAQVHPIRYDYWGQGTQVTVSS
polyreactivity (PSR sort gate): low polyreactivity

QDQLVVSGGGLVQAGGSHSLSCAASGSIFIGYSMGWYRQAPGQERELVAAITSSGRTNYADSVKGRFTISRDNAKNTVYLQMTILKPEDTAVYYCNAEGYQFFTFDYWGQGTQVTVSS
polyreactivity (PSR sort gate): low polyreactivity

QVQLVESGGGLVQAGGSLRLSCAASGSTFPYYAMGWYRQAPGKERELVAAITSGGSTYYADSVKGRFTISRDNAKNTVYLQMNSLKPEDTAVYYCAARYAPTLSVYRFYYWGQGTQVTVSS
polyreactivity (PSR sort gate): high polyreactivity

QVQLVESGGGLVQAGGSLRLSCADSGSIFAYNGMGWKRQAPGKERELVAAISRGGRTSYADSVKGRFTISRDNAKNTVYLQMNSVKPEDTAVYYCNAVYRWFSSAYVYSSGYNGDYWGQGTQVTVSS
polyreactivity (PSR sort gate): high polyreactivity

QVQLVESGGGLVQAGGSLRLSCAASGSIFTVNAMGWYRQAPGKERELVAAISSGGSTHYADSVKGRFTISRDNAKNTVYLQMNSLKPEDTAVYYCAAVYVPYYGYSTRYDYWGQGTQVTVSS
polyreactivity (PSR sort gate): low polyreactivity

QVQLVESWGGLVQAGGSLRLSCADSGRTFTVNAMGWYRQAPGKETEFVAAISGRSGRTSYADSVKGRFTISRDNAKNTVYLQMNCLKPEDTAVYYCNASGGYSTGSRYDYWGQGTQVTVSS
polyreactivity (PSR sort gate): high polyreactivity

QDQLVESGGGLVQAGGSLRLSCAASGIIFDDNTMGWYRQAPGKERELVAAISSSGGSTYYADSVKGRFTISRDNAKNTVYLQMNSLKPEDTAVYYCAAAVYYTYPYIVYRNYPEFDYRGQGTQVTVSS
polyreactivity (PSR sort gate): low polyreactivity

QVQLVESGGGLVQAGGSLRLSCAASGRTYVYTMGWYRQAPGKERELVAAIRYSGGRTYYADSVKGRFTISRDNAMNTVYLQMNSLKPEDTAVYYCAARNYATGVRYDYWGQGTQVTVSS
polyreactivity (PSR sort gate): high polyreactivity

QVQLVESGGGLVQAGGILRLSCAASGFIFGYYGMGWYRQAPGKERELVAAISRSGGGTFYAVSVKGRFTISRDNAKNTVYLQMNSLKPEDTAVYYCNAKYYRKSGLSGAYPYYYWGQGTQVTVSS
polyreactivity (PSR sort gate): high polyreactivity

QVQLVESGGGLVQAGGSLRLSCAASGRIIDRNDMGWYRQAPGKERELVAAISSSGSTNYADSVKGRFTISRDNAKNTVYLQMNSLKPEHTAGYYCADRWRSVLASGTRPVSFDYWGQGTQVTVSS
polyreactivity (PSR sort gate): low polyreactivity

QVQLGESGGVLVQAGGSLRLICAACGSTFSYYTMGWYRKAPGKEREVVAVIYTSGGNTYYADSVKGRFTISRDNAKNTVYLQMNSLKPEDTAVYYCAARWYGRGRYEYWGQGTQVTVSS
polyreactivity (PSR sort gate): high polyreactivity

QVQLVESGGGLVQAGGSLRLSFAASGFTFGYYTMGWYRQAPGKERELVAAITSGGGTYYADSVKGRFTISRDNAKNTVYLQMNSLKPEDTAVYYCATTPVWYKVSRRYGYWGQGTQVTVSS
polyreactivity (PSR sort gate): high polyreactivity

QVQLVESGGGLVQAGGSLRLSCPASGSIFSAYAMGWYRQAPGNEREFVAAITRRGGNTYYADSVKGRFTISRDNAKNTVYLQMNSLKPEDTAVYYCAAIRRQKGLWDYYYWGQGTQVTVSS
polyreactivity (PSR sort gate): low polyreactivity
